Test results taken from patent US20090305963A1, “Lipocalin 2 for the Treatment, Prevention, and Management of Cancer Metastasis, Angiogenesis, and Fibrosis” (priority 2005, published 2009).

Tested on: VEGF mRNA
Assay: VEGF mRNA by semi-quantitative RT-PCR in 4T1 cells
Assay type: cell-based, mouse
Settings: RL vs R cells
Method: For VEGF assays, two μg of each RNA sample was reverse transcribed using oligo-dT priming and control reaction was prepared for every sample where the reverse transcriptase was omitted. PCR was performed using Taq DNA polymerase (Qiagen) using primers for mouse VEGF (5′-GTACCTCCACCATGCCAAGT-3′, SEQ ID NO: 10, and 5′-GCGAGTCTGTGTTTTTGCAG-3′ SEQ ID NO: 11), GAPDH (5′-ACAGTCTTCTGAGTGGCA-3′ SEQ ID NO: 6 and 5′-CCCATCACCATCTTCCAG-3′, SEQ ID NO: 7) for DNA amplification. PCR amplification was achieved by initial 94° C. incubation for 5 minutes followed by 25 cycles of 94° C. for 30 seconds, 58° C. for 30 seconds and 72° C. for 30 seconds, with 72° C. for 7 minutes as an extension time. These PCR conditions were established for DNA amplification in the linear range. PCR products were analyzed on 1.5% agarose gels.

B1: lipocalin 2: human lipocalin 2 cDNA (HA tagged) in pcDNA3.1, stably expressed in 4T1-ras cells (RL clone); iron-siderophore binding protein (protein, UniProt P80188 21-198, looked up)
Neutrophil …: QDSTSDLIPAPPLSKVPLQQNFQDNQFQGKWYVVGLAGNAILREDKDPQKMYATIYELKEDKSYNVTSVLFRKKKCDYWIRTFVPGCQPGEFTLGNIKSYPGLTSYLVRVVSTNYNQHAMVFFKKVSQNREYFKITLYGRTKELTSELKENFIRFSKSLGLPENHIVFPVPIDQCIDG
modifications: HA tag
ras-augmented VEGF mRNA level: reduced this upregulation
